One assay concerns the target T1, 4H48-bH.
T1 chain: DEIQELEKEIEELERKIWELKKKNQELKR
Description: two-hybrid library CCNG1.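 Also: natural log of median RNA to DNA barcode read ratio; higher means stronger binding.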

A further assay concerns the target T2, 4H2937-bH.
T2 chain: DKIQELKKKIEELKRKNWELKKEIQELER
Kind of assay: two-hybrid library CCNG1.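 Also: natural log of median RNA to DNA barcode read ratio; higher means stronger binding.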

The target of the next assay is T3, 4H342-bH.
T3 chain: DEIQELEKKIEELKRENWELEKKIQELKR
Kind of assay: two-hybrid library CCNG1.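 Also: natural log of median RNA to DNA barcode read ratio; higher means stronger binding.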

For the next assay, the target named is T4, 4H2883-bH.
T4 chain: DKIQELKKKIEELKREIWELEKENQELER
Kind of assay: two-hybrid library CCNG1.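 Also: natural log of median RNA to DNA barcode read ratio; higher means stronger binding.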

Another assay addresses T5, 4H2944-bH.
T5 chain: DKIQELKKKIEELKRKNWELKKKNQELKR
Description: two-hybrid library CCNG1.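 Also: natural log of median RNA to DNA barcode read ratio; higher means stronger binding.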

Another assay concerns the target T6, 4H491-bH.
T6 chain: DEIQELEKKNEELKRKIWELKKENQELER
Kind of assay: two-hybrid library CCNG1.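 Also: natural log of median RNA to DNA barcode read ratio; higher means stronger binding.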

In another assay the target is T7, P2mSN.
T7 chain: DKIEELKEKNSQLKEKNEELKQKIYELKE
Description: two-hybrid library CCNG1.

A further assay deals with T8, P5mSN.
T8 chain: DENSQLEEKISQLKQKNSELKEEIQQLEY
Kind of assay: two-hybrid library CCNG1.

For a further assay, the target named is T9, P3mSN.
T9 chain: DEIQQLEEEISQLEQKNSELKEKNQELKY
Description: two-hybrid library CCNG1.

The target in another assay is T10, P6mSN.
T10 chain: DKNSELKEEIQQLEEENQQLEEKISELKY
Description: two-hybrid library CCNG1.

In another assay the target is T11, P7mSN.
T11 chain: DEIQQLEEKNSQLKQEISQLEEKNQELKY
Description: two-hybrid library CCNG1.

Another assay has as its target T12, P1mSN.
T12 chain: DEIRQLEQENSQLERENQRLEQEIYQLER
Description: two-hybrid library CCNG1.

A further assay deals with T13, P8mSN.
T13 chain: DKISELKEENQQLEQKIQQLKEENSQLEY
Description: two-hybrid library CCNG1.

The next assay addresses T14, P4mSN.
T14 chain: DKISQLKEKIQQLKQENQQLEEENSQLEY
Kind of assay: two-hybrid library CCNG1.

Another assay deals with T15, P12mSN.
T15 chain: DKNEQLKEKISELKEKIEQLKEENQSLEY
Description: two-hybrid library CCNG1.

The target of the next assay is T16, P9mSN.
T16 chain: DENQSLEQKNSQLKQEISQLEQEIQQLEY
Kind of assay: two-hybrid library CCNG1.

In the next assay the target is T17, 4H687-bA.
T17 chain: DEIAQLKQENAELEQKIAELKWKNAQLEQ
Kind of assay: two-hybrid library CCNG1.

In a further assay the target is T18, 4H953-bA.
T18 chain: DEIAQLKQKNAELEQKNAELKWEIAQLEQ
Description: two-hybrid library CCNG1.

Another assay deals with T19, 4H967-bA.
T19 chain: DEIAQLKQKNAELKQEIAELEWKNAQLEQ
Description: two-hybrid library CCNG1.

For the next assay, the target named is T20, 4H754-bA.
T20 chain: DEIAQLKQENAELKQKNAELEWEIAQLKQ
Kind of assay: two-hybrid library CCNG1.

In another assay the target is T21, 4H72-bA.
T21 chain: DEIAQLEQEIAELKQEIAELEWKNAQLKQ
Description: two-hybrid library CCNG1.

In a further assay the target is T22, 4H918-bA.
T22 chain: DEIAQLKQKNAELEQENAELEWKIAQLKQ
Kind of assay: two-hybrid library CCNG1.

A further assay concerns the target T23, 4H797-bA.
T23 chain: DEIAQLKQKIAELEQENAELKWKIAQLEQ
Description: two-hybrid library CCNG1.

For a further assay, the target named is T24, O10-bS.
T24 chain: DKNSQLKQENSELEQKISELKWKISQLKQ
Description: two-hybrid library CCNG1.

The next assay concerns the target T25, 4H883-bA.
T25 chain: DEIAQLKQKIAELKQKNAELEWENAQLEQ
Description: two-hybrid library CCNG1.

The target of the next assay is T26, 4H607-bA.
T26 chain: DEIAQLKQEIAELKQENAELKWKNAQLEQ
Description: two-hybrid library CCNG1.

The target in a further assay is T27, 4H568-bA.
T27 chain: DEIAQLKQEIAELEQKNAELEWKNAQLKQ
Description: two-hybrid library CCNG1.

The next assay concerns the target T28, 4H717-bA.
T28 chain: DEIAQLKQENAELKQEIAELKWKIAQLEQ
Description: two-hybrid library CCNG1.

The next assay has as its target T29, 4H850-bN.
T29 chain: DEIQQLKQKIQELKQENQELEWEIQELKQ
Kind of assay: two-hybrid library CCNG1.

The next assay deals with T30, 4H908-bA.
T30 chain: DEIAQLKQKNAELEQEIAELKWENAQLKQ
Description: two-hybrid library CCNG1.

For a further assay, the target named is T31, P5A-bA.
T31 chain: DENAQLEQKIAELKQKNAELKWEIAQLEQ
Kind of assay: two-hybrid library CCNG1.

A further assay deals with T32, 4H2290-AA.
T32 chain: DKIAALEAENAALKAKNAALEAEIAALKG
Description: two-hybrid library CCmax. Particulars: mean of both orientations.

A further assay deals with T33, APC3645-AA.
T33 chain: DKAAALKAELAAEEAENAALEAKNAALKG
Description: two-hybrid library CCmax. Particulars: mean of both orientations.

Another assay concerns the target T34, APC4436-AA.
T34 chain: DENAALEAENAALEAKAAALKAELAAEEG
Description: two-hybrid library CCmax. Particulars: mean of both orientations.

A further assay concerns the target T35, APC7099-AA.
T35 chain: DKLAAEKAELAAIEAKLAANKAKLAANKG
Description: two-hybrid library CCmax. Particulars: mean of both orientations.

Another assay addresses T36, 4H716-AA.
T36 chain: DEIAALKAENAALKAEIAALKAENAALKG
Description: two-hybrid library CCmax. Particulars: mean of both orientations.

The target of a further assay is T37, APC2237-AA.
T37 chain: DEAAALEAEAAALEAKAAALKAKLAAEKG
Description: two-hybrid library CCmax. Particulars: mean of both orientations.

The target of a further assay is T38, 4H2447-AA.
T38 chain: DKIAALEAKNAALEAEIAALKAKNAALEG
Kind of assay: two-hybrid library CCmax. Particulars: mean of both orientations.

The target in another assay is T39, APC9096-AA.
T39 chain: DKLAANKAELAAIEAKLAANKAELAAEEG
Kind of assay: two-hybrid library CCmax. Particulars: mean of both orientations.

Another assay concerns the target T40, 4H2148-AA.
T40 chain: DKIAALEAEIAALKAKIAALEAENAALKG
Kind of assay: two-hybrid library CCmax.

The target of the next assay is T41, 4H3330-AA.
T41 chain: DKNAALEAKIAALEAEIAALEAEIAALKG
Description: two-hybrid library CCmax. Particulars: mean of both orientations.

The next assay has as its target T42, APC4264-AA.
T42 chain: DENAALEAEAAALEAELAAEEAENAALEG
Description: two-hybrid library CCmax. Particulars: mean of both orientations.

The target in another assay is T43, APC232-AA.
T43 chain: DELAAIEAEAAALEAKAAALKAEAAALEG
Description: two-hybrid library CCmax. Particulars: mean of both orientations.

The target in another assay is T44, 4H2458-AA.
T44 chain: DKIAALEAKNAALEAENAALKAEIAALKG
Description: two-hybrid library CCmax. Particulars: mean of both orientations.

A further assay deals with T45, APC8191-AA.
T45 chain: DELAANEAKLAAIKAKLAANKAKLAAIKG
Description: two-hybrid library CCmax. Particulars: mean of both orientations.

Another assay deals with T46, APC8910-AA.
T46 chain: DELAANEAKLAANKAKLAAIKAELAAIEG
Kind of assay: two-hybrid library CCmax. Particulars: mean of both orientations.

A further assay has as its target T47, APC6108-AA.
T47 chain: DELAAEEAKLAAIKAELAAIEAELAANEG
Kind of assay: two-hybrid library CCmax. Particulars: mean of both orientations.

The target in the next assay is T48, APC1015-AA.
T48 chain: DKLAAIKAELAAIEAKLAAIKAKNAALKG
Kind of assay: two-hybrid library CCmax. Particulars: mean of both orientations.

A further assay concerns the target T49, APC2405-AA.
T49 chain: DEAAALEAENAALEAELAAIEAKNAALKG
Kind of assay: two-hybrid library CCmax. Particulars: mean of both orientations.

The target in another assay is T50, APC1434-AA.
T50 chain: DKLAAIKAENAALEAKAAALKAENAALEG
Description: two-hybrid library CCmax. Particulars: mean of both orientations.

The target of a further assay is T51, 4H807-AA.
T51 chain: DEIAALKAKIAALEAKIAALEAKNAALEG
Kind of assay: two-hybrid library CCmax. Particulars: mean of both orientations.

The next assay concerns the target T52, APC4011-AA.
T52 chain: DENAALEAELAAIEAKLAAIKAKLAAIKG
Description: two-hybrid library CCmax. Particulars: mean of both orientations.

The next assay deals with T53, APC5383-AA.
T53 chain: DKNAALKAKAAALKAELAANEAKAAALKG
Kind of assay: two-hybrid library CCmax. Particulars: mean of both orientations.

The target in another assay is T54, APC9319-AA.
T54 chain: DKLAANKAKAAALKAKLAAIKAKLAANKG
Description: two-hybrid library CCmax. Particulars: mean of both orientations.

For the next assay, the target named is T55, 4H733-AA.
T55 chain: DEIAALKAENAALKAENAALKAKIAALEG
Kind of assay: two-hybrid library CCmax. Particulars: mean of both orientations.

Consider DKIQELKKKIEELKREIWELEKENQELER [4H2883-bH], for which the interaction score with 4H48-bH was 1.17; with 4H2937-bH, 0.674; in the assay with 4H342-bH, -0.175; with 4H2883-bH it was 1.73; with 4H2944-bH, 0.783; with 4H491-bH, 0.298.

On to DKNEQLKEKISELKEKIEQLKEENQSLEY [P12mSN], for which the interaction score is -1.65 with P2mSN; -1.2 in the assay with P5mSN; -1.72 in the assay with P3mSN; -1.04 with P6mSN; -0.807 in the assay with P7mSN; -1.32 with P1mSN. The interaction score with P8mSN is -2.51; with P4mSN, -1.35; with P12mSN it was -0.695; with P9mSN, -2.15.

For the molecule DEIAQLKQEIAELEQKNAELEWKNAQLKQ [4H568-bA], the interaction score with 4H687-bA is -0.587; with 4H953-bA, -1.16; with 4H967-bA, -0.986; with 4H754-bA it was -0.527; with 4H72-bA, -0.657; with 4H918-bA it was -0.305. The interaction score is -0.352 with 4H797-bA; -1.27 in the assay with O10-bS; 1.54 with 4H883-bA; -1.48 with 4H607-bA; 1.33 with 4H568-bA; -0.468 with 4H717-bA. The interaction score with 4H850-bN was 0.0841; in the assay with 4H908-bA, -1.26; in the assay with P5A-bA it was -1.54.

For the molecule DKIAALEAEIAALKAKIAALEAENAALKG [4H2148-AA], the interaction score in the assay with 4H2290-AA was -1.47; with APC3645-AA, -1.31; in the assay with APC4436-AA, -1.32; with APC7099-AA, -1.55; with 4H716-AA, -1.22; with APC2237-AA, -1.14. The interaction score with 4H2447-AA is -1.42; with APC9096-AA it was -1.24; in the assay with 4H2148-AA it was 1.63; in the assay with 4H3330-AA, -0.193; in the assay with APC4264-AA, -1.81; in the assay with APC232-AA it was -1.38. The interaction score with 4H2458-AA was -1.46; in the assay with APC8191-AA, -1.4; with APC8910-AA it was -1.35; in the assay with APC6108-AA, -1.13; with APC1015-AA, 0.959; in the assay with APC2405-AA it was -1.19. The interaction score with APC1434-AA was -1.39; with 4H807-AA, -1.41; in the assay with APC4011-AA it was -0.327; in the assay with APC5383-AA it was -1.66; in the assay with APC9319-AA, -1.42; with 4H733-AA, -1.59.
